Residue numbers refer to the chain shown, from its start. Names and notes keep the numbering of the source.

B1: PYL6: wild-type ABA receptor PYL6 (SEQ ID NO:7) (protein, listed as Arabidopsis thaliana)
chain: MPTSIQFQRSSTAAEAANATVRNYPHHHQKQVQKVSLTRGMADVPEHVELSHTHVVGPSQCFSVVVQDVEAPVSTVWSILSRFEHPQAYKHFVKSCHVVIGDGREVGSVREVRVVSGLPAAFSLERLEIMDDDRHVISFSVVGGDHRLMNYKSVTTVHESEEDSDGKKRTRVVESYVVDVPAGNDKEETCSFADTIVRCNLQSLAKLAENTSKFS
modifications: thale cress PYR/PYL receptor, abscisic acid receptor PYL6, PYR1-like protein 6 (PYL6), ABI1-binding protein 5 (ABIP5), regulatory components of ABA receptor 9 (RCAR9), Bet v I allergen family protein, At2g40330, T7M7.15
B2: K170W: PYR1 receptor mutant with amino acid substitution K170W (protein)
chain: MPSELTPEERSELKNSIAEFHTYQLDPGSCSSLHAQRIHAPPELVWSIVRRFDKPQTYKHFIKSCSVEQNFEMRVGCTRDVIVISGLPANTSTERLDILDDERRVTGFSIIGGEHRLTNYKSVTTVHRFEKENRIWTVVLESYVVDMPEGNSEDDTRMFADTVVKLNLQWLATVAEAMARNSGDGSGSQVT
modifications: synthetic mutated PYR/PYL receptor polypeptide PYR1 K170W
B3: V83F: PYR1 receptor mutant with amino acid substitution V83F (protein)
chain: B2 chain with V83F, W170K
modifications: synthetic mutated PYR/PYL receptor polypeptide PYR1 V83F
B4: M158I: PYR1 receptor mutant with amino acid substitution M158I (protein)
chain: B2 chain with M158I, W170K
modifications: synthetic mutated PYR/PYL receptor polypeptide PYR1 M158I
B5: F159V: PYR1 receptor mutant with amino acid substitution F159V (protein)
chain: B2 chain with F159V, W170K
modifications: synthetic mutated PYR/PYL receptor polypeptide PYR1 F159V
B6: A89W: PYR1 receptor mutant with amino acid substitution A89W (protein)
chain: B2 chain with A89W, W170K
modifications: synthetic mutated PYR/PYL receptor polypeptide PYR1 A89W
B7: I84Q: PYR1 receptor mutant with amino acid substitution I84Q (protein)
chain: B2 chain with I84Q, W170K
modifications: synthetic mutated PYR/PYL receptor polypeptide PYR1 I84Q
B8: H60P: PYR1 (SEQ ID NO:1) receptor mutant with amino acid substitution H60P (protein, listed as Arabidopsis thaliana)
chain: B2 chain with H60P, W170K
modifications: thale cress PYR/PYL receptor, Pyrabactin resistance 1, abscisic acid receptor PYR1 (PYR1), ABI1-binding protein 6 (ABIP6), regulatory components of ABA receptor 11 (RCAR11), At4g17870, T6K21.50
B9: PYL9^CA4C: PYL9 mutant (A91W, Y160I, F161V) (protein)
chain: HHHHHHMMDGVEGGTAMYGGLETVQYVRTHHQHLCRENQCTSALVKHIKAPLHLVWSLVRRFDQPQKYKPFVSRCTVIGDPEIGSLREVNVKSGLPWTTSTERLELLDDEEHILGIKIIGGDHRLKNYSSILTVHPEIIEGRAGTMVIESFVVDVPQGNTKDETCIVVEALIRCNLKSLADVSERLASQDITQ
B10: PYL2^CA4C: PYL2 mutant (H65P, A93W, M1641, F165V) (protein)
chain: HHHHHHMSSSPAVKGLTDEEQKTLEPVIKTYHQFEPDPTTCTSLITQRIHAPASVVWPLIRRFDNPERYKPFVKRCRLISGDGDVGSVREVTVISGLPWSTSTERLEFVDDDHRVLSFRVVGGEHRLKNYKSVTSVNEFLNQDSGKVYTVVLESYTVDIPEGNTEEDTKIVVDTVVKLNLQKLGVAATSAPMHDDE
B11: PYR1^CA4B: PYR1 quadruple mutant (V83F, M158I, F159V, K170W) (protein)
chain: HHHHHHMPSELTPEERSELKNSIAEFHTYQLDPGSCSSLHAQRIHAPPELVWSIVRRFDKPQTYKHFIKSCSVEQNFEMRVGCTRDVIFISGLPANTSTERLDILDDERRVTGFSIIGGEHRLTNYKSVTTVHRFEKENRIWTVVLESYVVDMPEGNSEDDTRIVADTVVKLNLQWLATVAEAMARNSGDGSGSQVT
B12: PYR1^CAc: PYR1 quadruple mutant (H60P, A89W, M158I, F159V) (protein)
chain: B11 chain with H66P, F89V, A95W, W176K
B13: PYL10: wild-type ABA receptor PYL10 (SEQ ID NO:11) (protein, listed as Arabidopsis thaliana)
chain: MNGDETKKVESEYIKKHHRHELVESQCSSTLVKHIKAPLHLVWSIVRRFDEPQKYKPFISRCVVQGKKLEVGSVREVDLKSGLPATKSTEVLEILDDNEHILGIRIVGGDHRLKNYSSTISLHSETIDGKTGTLAIESFVVDVPEGNTKEETCFFVEALIQCNLNSLADVTERLQAESMEKKI
modifications: thale cress PYR/PYL receptor, abscisic acid receptor PYL10, PYR1-like protein 10 (PYL10), ABI1-binding protein 8 (ABIP8), regulatory components of ABA receptor 4 (RCAR4), At4g27920, T13J8.30

The subject of the assay is HAB1. The experiment in a line: In vitro PP2C phosphatase (pNPP) receptor activation assay with HAB1. The class given is biochemical, Arabidopsis. As to conditions: 600 nM GST-HAB1, 0-4800 nM receptor, no ABA. Here is the method: Recombinant receptor proteins were produced as follows: Coding sequences were cloned into pET28 yielding 6×HIS (SEQ ID NO:173) fusions proteins and transformed into E. coli expression strain BL21. […]. Cells were stored at −80° C. before purification. After thawing, cells were sonicated on ice five times for 30 sec with 30 sec resting intervals. A cleared lysate was obtained after centrifugation at 12,000×g for 10 min and applied to 1 ml of Ni-NTA column (Qiagen) and washed with 20 column volumes of Buffer A containing 30 mM imidazole. Bound protein was eluted with 10 ml of Buffer A with 250 mM imidazole. The elutate was dialyzed against TBS. The purified recombinant proteins were then used together with recombinant phosphatases in receptor assays. In these assays, receptor activity is indicated by inhibition of phosphatase activity, as inferred from initial reaction velocities for GST-HAB1 mediated hydrolysis of the synthetic phosphatase substrate pNPP. Reactions contained 600 nM GST-HAB1 and either 0, 600, 1200, 2400 or 4800 nM 6×His-PYR1 or variants in a reaction buffer consisting of 33 mM Tris-OAc, pH 7.9, 66 mM KOAc, 0.1% BSA, 25 mM Mn(OAc)2, 50 mM pNPP. To infer the level of receptor activation with respect to fully activated wild type receptor, control reactions were also conducted using saturating levels of (+)-ABA (10 μM), and 600 nM wild type PYR1 and HAB1. Immediately after mixing proteins and substrates, reactions were monitored for hydrolysis of pNPP at A405 at ˜10 second intervals over 20 minutes using a Wallac plate reader. Reaction progressions were plotted, initial velocities calculated and converted to specific activities using a standard curve for 4-nitrophenol made in the same buffer system volumes/plate reader used for enzymatic reaction measurements. The values shown are expressed as %-control phosphatase activity levels as measured in the absence of receptor protein. The average specific activity level of GST-HAB1 utilized in our experiments was 4000 μmol/min/mg, when assayed on the phosphatase substrate pNPP in the absence of PYR1 or other receptors, as described using the methods above.
Full length ABI1 and ABI2 were cloned into a modified pSUMO vector (LifeSensors Inc, USA) vector yielding 6×His-SUMO fusion proteins; GST-HAB1 was expressed and purified as previously described (Park et al., 2009). Mutant receptors were cloned into pET28 yielding 6×His-fusion proteins. […]. The cultures were pre-incubated 2 hours at 30° C. and, for PP2C expression, media was supplemented with 4 mM MnCl2 one hour after inoculation. After pre-incubation, IPTG was added (1 mM) and cells were induced at 15° C. for 16 hours, after which they were collected by centrifugation, resuspended in 5 ml Buffer A (50 mM NaH2PO4, 300 mM NaCl) +10 mM imidazole, pH 8.0 and stored at −80° C. For purification, cells were thawed, sonicated on ice (60 seconds) and a cleared lysate was then applied a 1 ml-bed volume column of Ni-NTA (Qiagen, USA), washed with 20 column volumes of Buffer A+30 mM imidazole and bound protein eluted with 1 ml of Buffer A+250 mM imidazole. For receptors, the elutate was dialyzed against TBS and for PP2Cs, fusion proteins were desalted by passage over a Sephadex G50 column.
The purified receptors and phosphatases were then used in receptor assays where receptor activation is indicated by inhibition of phosphatase activity, as inferred from initial reaction velocities for PP2C-mediated hydrolysis of the synthetic phosphatase substrate pNPP in reactions containing 600 nM PP2C and either 0, 600, 1200, 2400 or 4800 nM receptor. The receptor assay buffer consisted of 33 mM Tris-OAc, pH 7.9, 66 mM KOAc, 0.1% BSA, 25 mM Mn(OAc)2, 0.1%13-ME and 50 mM pNPP. Immediately after mixing proteins and substrates, reactions were monitored for hydrolysis of pNPP at A405 at ˜2 minutes intervals using a Wallac plate reader. […]
B1: the “basal receptor activity (inhibition of HAB1 phosphatase activity in the absence of ABA)” value is reported as “are not full CA receptors”.
Under B2 stands “increase basal activity of receptors”; under B3, “increase basal activity of receptors”.
With B4 the entry was “increase basal activity of receptors”.
Turning to B5, the “basal receptor activity (inhibition of HAB1 phosphatase activity in the absence of ABA)” value was “increase basal activity of receptors”.
With B6 the entry was “increase basal activity of receptors”.
With B7 the entry was “increase basal activity of receptors”; with B8, “increase basal activity of receptors”.
With B9 the entry was “highly activated in the absence of ABA”; with B10, “highly activated in the absence of ABA”; with B11, “dramatically increased basal PYR1 activity”.
For the molecule B12, the “basal receptor activity (inhibition of HAB1 phosphatase activity in the absence of ABA)” value is reported as “dramatically increased basal PYR1 activity”.
With B13 the entry was “are not full CA receptors”.

The record behind these values is US10704056B2, “Constitutively active ABA receptor mutants” (The Regents of the University of California, priority 2011, dated 2020).
